Measured values: paper PMC8626070 (Science Advances, 2021)

How the values were obtained:
Assay in all cases: oriented sample solid-state NMR
[1] = target: wild-type sarcolipin (SLN^wt), recombinant (UniProt O00631 1-31)
[2] = target: SLN^ΔI3N4T5 (sarcolipin with I3, N4 and T5 deleted) (UniProt O00631 1-31, ΔI3N4T5)
[3] = target: SLN^ΔY29Q30Y31 (sarcolipin with Y29, Q30 and Y31 deleted) (UniProt O00631 1-31, ΔY29Q30Y31)
[4] = target: SLN^ΔT5R6E7 (sarcolipin with T5, R6 and E7 deleted) (UniProt O00631 1-31, ΔT5R6E7)

Measured: binding result

B1: sarcoplasmic reticulum Ca2+-ATPase SERCA1a purified from rabbit skeletal muscle (enzyme)
chain: MEAAHSKSTEECLAYFGVSETTGLTPDQVKRHLEKYGHNELPAEEGKSLWELVIEQFEDLLVRILLLAACISFVLAWFEEGEETITAFVEPFVILLILIANAIVGVWQERNAENAIEALKEYEPEMGKVYRADRKSVQRIKARDIVPGDIVEVAVGDKVPADIRILSIKSTTLRVDQSILTGESVSVIKHTEPVPDPRAVNQDKKNMLFSGTNIAAGKALGIVATTGVSTEIGKIRDQMAATEQDKTPLQQKLDEFGEQLSKVISLICVAVWLINIGHFNDPVHGGSWIRGAIYYFKIAVALAVAAIPEGLPAVITTCLALGTRRMAKKNAIVRSLPSVETLGCTSVICSDKTGTLTTNQMSVCKMFIIDKVDGDFCSLNEFSITGSTYAPEGEVLKNDKPIRSGQFDGLVELATICALCNDSSLDFNETKGVYEKVGEATETALTTLVEKMNVFNTEVRNLSKVERANACNSVIRQLMKKEFTLEFSRDRKSMSVYCSPAKSSRAAVGNKMFVKGAPEGVIDRCNYVRVGTTRVPMTGPVKEKILSVIKEWGTGRDTLRCLALATRDTPPKREEMVLDDSSRFMEYETDLTFVGVVGMLDPPRKEVMGSIQLCRDAGIRVIMITGDNKGTAIAICRRIGIFGENEEVADRAYTGREFDDLPLAEQREACRRACCFARVEPSHKSKIVEYLQSYDEITAMTGDGVNDAPALKKAEIGIAMGSGTAVAKTASEMVLADDNFSTIVAAVEEGRAIYNNMKQFIRYLISSNVGEVVCIFLTAALGLPEALIPVQLLWVNLVTDGLPATALGFNPPDLDIMDRPPRSPKEPLISGWLFFRYMAIGGYVGAATVGAAAWWFMYAEDGPGVTYHQLTHFMQCTEDHPHFEGLDCEIFEAPEPMTMALSVLVTIEMCNALNSLSENQSLMRMPPWVNIWLLGSICLSMSLHFLILYVDPLPMIFKLKALDLTQWLMVLKISLPVIGLDEILKFIARNYLEG
binds: [1] | [2] | [3] | [4]
